Results from paper PMC5506826.

Experiments:
Conditions in all cases: EMSA: 40 mM Tris-HCl pH 8, 100 mM KCl, 0.5 mM DTT, 0.05% NP40, 2 mM spermidine, 0.2 mM EDTA, 8% glycerol, 15 ng/ul herring sperm DNA, 30 min room temperature …
[1] = system: T1, 6His-SUMO-RegA (Acidithiobacillus ferrooxidans ATCC 23270T), ORF:158a6978; assay: EMSA
T1 sequence: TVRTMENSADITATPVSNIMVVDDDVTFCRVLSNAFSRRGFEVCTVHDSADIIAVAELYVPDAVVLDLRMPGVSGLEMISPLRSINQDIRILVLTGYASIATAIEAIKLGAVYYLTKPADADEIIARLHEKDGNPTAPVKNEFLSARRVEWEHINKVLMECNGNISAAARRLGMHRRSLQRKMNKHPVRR

[2] = system: T1, 6His-SUMO-RegA (Acidithiobacillus ferrooxidans ATCC 23270T), ORF:158a6978; assay: DLS
[3] = system: T2, RegA-HTH-6His (Acidithiobacillus ferrooxidans ATCC 23270T), ORF:158a6978; assay: EMSA
T2 sequence: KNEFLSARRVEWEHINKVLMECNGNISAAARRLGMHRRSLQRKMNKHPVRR

| Sequence | binding [1] | binding [2] | binding [3] |
| --- | --- | --- | --- |
| CATTATGCGGCTGGCACAATACATGCATAAAACATCTCGTGCTGCCGCGGGATTCTCATTTTCATTTACTCATTGAATATCATAAGCGGGATGCAGCCATAAATATAACGCTGGTTGTGTTATTGGGAGCGAGCATTTAATTCTGTTGATATCGTTTATGGGAATAACAAAAGTGGAGACGCAGCTGAAAAAGCGAAGCTGATGACAGAGTACGTTATACCTCACCAAATGGATTGGAGACTTGATATGCC (double strand) [tet 251 bp] | binds | – | – |
| CCCCAGTCATGAAGCCTACCGTGGTAATCGCCCCCCTTGCGGTTAAGCTAACTACTTCTGGTAAACCCCACTTCCATGGTGTGACGGGCGGTGTG (double strand) [rrs 16S 95 bp] | – | no binding | no binding |
| TGTCAGTTTTTGGGACATTTTAGTGATCGCGGCATATAATTAAAAGGCCAGATTAACATGTTTAAATAACGTTAGCACATAATTCTTTTCTTATGTTCTTTATTTAAGTTATTGTGTTTTAGTGGATCCGTATCGTGATG (double strand) [rus PI 140 bp] | binds | – | – |
